Measurements as given in PMC10653854 (mBio, 2023).
Several values for one entry are separate records, joined by “and”; a condition that tells them apart may be missing. Equal entries are not always repeated.

What was measured:
Conditions in all cases: both partners purified
[1] = target: T1, yellow fever virus (YFV) strain Asibi soluble E ectodomain (sE) (yellow fever virus, strain Asibi); experiment: SPR; pH 8; pr injected over immobilized sE; Biacore T200, 25°C
[2] = target: T1, yellow fever virus (YFV) strain Asibi …; experiment: ITC
[3] = target: T1, yellow fever virus (YFV) strain Asibi …; experiment: SPR; pH 6; pr injected over immobilized sE; Biacore T200, 25°C

B1: recombinant purified yellow fever virus (YFV) pr protein (natural protein)
chain: not shown
B1 gave a Kd [1] of 19.7 nM, a koff [1] of 0.00134 s⁻¹ and a kon [1] of 70000 M⁻¹ s⁻¹. The dH [2] was -16.6 kcal/mol and -16.3 kcal/mol, the “stoichiometry N” value [2] was 0.9 and the Kd [3] was 6.2 nM. It also gave a koff [3] of 0.00236 s⁻¹ and a kon [3] of 380000 M⁻¹ s⁻¹.
